Assay results taken from the supplement of paper PMC9112550, “Optimization of the antimicrobial peptide Bac7 by deep mutational scanning” (BMC Biology, 2022).

test system: Escherichia coli TOP10; assay: shrunken log2 fold change of peptide-encoding DNA abundance (4.5 h post-induction vs induction); higher = less antimicrobial activity (less host growth inhibition); details: time post-induction: 4.5 h; library: site-saturation at positions 5, 18, 19, 20
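Further: peptides expressed intracellularly from a pBAD plasmid library in pooled LB shake-flask culture, induced with 0.3% L-arabinose, DNA abundance read by NGS, three biological replicates, DESeq2 with apeglm shrinkage.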

Row | Sequence | shrunken log2 fold change
1 | RRIRHRPPRLPRPRPRPHAEPRP | -0.0216
2 | RRIRHRPPRLPRPRPRPHCRPRP | 0.0364
3 | RRIRHRPPRLPRPRPRPHECPRP | -0.0277
4 | RRIRHRPPRLPRPRPRPHFFPRP | -0.0737
5 | RRIRHRPPRLPRPRPRPHIIPRP | -0.192
6 | RRIRHRPPRLPRPRPRPHKTPRP | 0.00711
7 | RRIRHRPPRLPRPRPRPHMWPRP | 0.104
8 | RRIRHRPPRLPRPRPRPHPLPRP | -0.0572
9 | RRIRHRPPRLPRPRPRPHRIPRP | -0.0803
10 | RRIRHRPPRLPRPRPRPHTDPRP | -0.212
11 | RRIRHRPPRLPRPRPRPHTHPRP | -0.725
12 | RRIRHRPPRLPRPRPRPHTYPRP | -0.79
13 | RRIRHRPPRLPRPRPRPHVCPRP | 0.00854
14 | RRIRHRPPRLPRPRPRPHWHPRP | -0.25
15 | RRIRHRPPRLPRPRPRPIAFPRP | -0.362
16 | RRIRHRPPRLPRPRPRPICHPRP | -0.265
17 | RRIRHRPPRLPRPRPRPIEQPRP | -0.0277
18 | RRIRHRPPRLPRPRPRPIGNPRP | -0.199
19 | RRIRHRPPRLPRPRPRPIIGPRP | -0.00804
20 | RRIRHRPPRLPRPRPRPIIIPRP | -0.247
21 | RRIRHRPPRLPRPRPRPIKWPRP | 0.126
22 | RRIRHRPPRLPRPRPRPIKYPRP | -0.194
23 | RRIRHRPPRLPRPRPRPILAPRP | 0.00463
24 | RRIRHRPPRLPRPRPRPILIPRP | -0.0862
25 | RRIRHRPPRLPRPRPRPILSPRP | -0.0163

Row | Sequence | shrunken log2 fold change
26 | RRIRHRPPRLPRPRPRPIMSPRP | -0.161
27 | RRIRHRPPRLPRPRPRPINYPRP | -0.248
28 | RRIRHRPPRLPRPRPRPIPAPRP | 0.32
29 | RRIRHRPPRLPRPRPRPIPYPRP | -0.3
30 | RRIRHRPPRLPRPRPRPIQHPRP | -0.237
31 | RRIRHRPPRLPRPRPRPIQTPRP | -0.338
32 | RRIRHRPPRLPRPRPRPIRCPRP | -0.115
33 | RRIRHRPPRLPRPRPRPIRDPRP | 0.0386
34 | RRIRHRPPRLPRPRPRPISQPRP | -0.0145
35 | RRIRHRPPRLPRPRPRPISYPRP | 0.121
36 | RRIRHRPPRLPRPRPRPITHPRP | -0.23
37 | RRIRHRPPRLPRPRPRPIVVPRP | 0.0062
38 | RRIRHRPPRLPRPRPRPIYVPRP | -0.0627
39 | RRIRHRPPRLPRPRPRPKCPPRP | -0.0954
40 | RRIRHRPPRLPRPRPRPKDTPRP | -0.15
41 | RRIRHRPPRLPRPRPRPKFLPRP | 0.0327
42 | RRIRHRPPRLPRPRPRPKHIPRP | -0.413
43 | RRIRHRPPRLPRPRPRPKIGPRP | 0.0776
44 | RRIRHRPPRLPRPRPRPKIIPRP | -1.08
45 | RRIRHRPPRLPRPRPRPKIPPRP | -0.254
46 | RRIRHRPPRLPRPRPRPKLLPRP | -0.0097
47 | RRIRHRPPRLPRPRPRPKMDPRP | -0.014
48 | RRIRHRPPRLPRPRPRPKMFPRP | -0.0772
49 | RRIRHRPPRLPRPRPRPKMHPRP | -0.0718
50 | RRIRHRPPRLPRPRPRPKMLPRP | -0.353

Row | Sequence | shrunken log2 fold change
51 | RRIRHRPPRLPRPRPRPKMMPRP | 0.00455
52 | RRIRHRPPRLPRPRPRPKPHPRP | 0.172
53 | RRIRHRPPRLPRPRPRPKPQPRP | 0.269
54 | RRIRHRPPRLPRPRPRPKVHPRP | -0.0663
55 | RRIRHRPPRLPRPRPRPKWMPRP | -0.123
56 | RRIRHRPPRLPRPRPRPLAFPRP | -0.2
57 | RRIRHRPPRLPRPRPRPLAYPRP | -0.351
58 | RRIRHRPPRLPRPRPRPLCDPRP | -0.397
59 | RRIRHRPPRLPRPRPRPLCNPRP | -0.337
60 | RRIRHRPPRLPRPRPRPLCQPRP | -0.316
61 | RRIRHRPPRLPRPRPRPLCRPRP | 0.0244
62 | RRIRHRPPRLPRPRPRPLFGPRP | -0.0987
63 | RRIRHRPPRLPRPRPRPLFIPRP | -0.68
64 | RRIRHRPPRLPRPRPRPLGIPRP | -0.148
65 | RRIRHRPPRLPRPRPRPLIMPRP | -0.561
66 | RRIRHRPPRLPRPRPRPLITPRP | -0.324
67 | RRIRHRPPRLPRPRPRPLKPPRP | 0.18
68 | RRIRHRPPRLPRPRPRPLKYPRP | -0.345
69 | RRIRHRPPRLPRPRPRPLLNPRP | -0.443
70 | RRIRHRPPRLPRPRPRPLLSPRP | -0.0464
71 | RRIRHRPPRLPRPRPRPLMRPRP | 0.221
72 | RRIRHRPPRLPRPRPRPLPNPRP | -0.156
73 | RRIRHRPPRLPRPRPRPLPQPRP | 0.348
74 | RRIRHRPPRLPRPRPRPLPWPRP | 0.108
75 | RRIRHRPPRLPRPRPRPLQSPRP | -0.0699
